According to PMC12460158, “Structural basis of fast N-type inactivation in Kv channels” (Nature, 2025):
Ends that are not written are not given here.

B1: full-length wild-type (WT) Shaker Kv channel, C-terminally mVenus tagged, tag removed (natural protein, Drosophila melanogaster, UniProt P08510 1-655, looked up)
chain: MAAVAGLYGLGEDRQHRKKQQQQQQHQKEQLEQKEEQKKIAERKLQLREQQLQRNSLDGYGSLPKLSSQDEEGGAGHGFGGGPQHFEPIPHDHDFCERVVINVSGLRFETQLRTLNQFPDTLLGDPARRLRYFDPLRNEYFFDRSRPSFDAILYYYQSGGRLRRPVNVPLDVFSEEIKFYELGDQAINKFREDEGFIKEEERPLPDNEKQRKVWLLFEYPESSQAARVVAIISVFVILLSIVIFCLETLPEFKHYKVFNTTTNGTKIEEDEVPDITDPFFLIETLCIIWFTFELTVRFLACPNKLNFCRDVMNVIDIIAIIPYFITLATVVAEEEDTLNLPKAPVSPQDKSSNQAMSLAILRVIRLVRVFRIFKLSRHSKGLQILGRTLKASMRELGLLIFFLFIGVVLFSSAVYFAEAGSENSFFKSIPDAFWWAVVTMTTVGYGDMTPVGVWGKIVGSLCAIAGVLTIALPVPVIVSNFNYFYHRETDQEEMQSQNFNHVTSCPYLPGTLGQHMKKSSLSESSSDMMDLDDGVESTPGLTETHPGRSAVAPFLGAQQQQQQPVASSLSMSIDKQLQHPLQQLTQTQLYQQQQQQQQQQQNGFKQQQQQTQQQLQQQQSHTINASAAAATSGSGSSGLTMRHNNALAVSIETDV
notes: Shaker Kv channel, Drosophila melanogaster, full-length gene; Residues of the TEV site may remain at the C terminus (surmise); also called C-terminally tagged WT Shaker; C-terminal mVenus-tagged Shaker; not shown: mVenus, C-terminal, cleaved; polyhistidine, C-terminal, cleaved
B2: GT Shaker Kv channel (N-terminally mVenus tagged Shaker after TEV cleavage, with additional Gly and Thr on the N terminus) (natural protein, Drosophila melanogaster)
chain: GTMAAVAGLYGLGEDRQHRKKQQQQQQHQKEQLEQKEEQKKIAERKLQLREQQLQRNSLDGYGSLPKLSSQDEEGGAGHGFGGGPQHFEPIPHDHDFCERVVINVSGLRFETQLRTLNQFPDTLLGDPARRLRYFDPLRNEYFFDRSRPSFDAILYYYQSGGRLRRPVNVPLDVFSEEIKFYELGDQAINKFREDEGFIKEEERPLPDNEKQRKVWLLFEYPESSQAARVVAIISVFVILLSIVIFCLETLPEFKHYKVFNTTTNGTKIEEDEVPDITDPFFLIETLCIIWFTFELTVRFLACPNKLNFCRDVMNVIDIIAIIPYFITLATVVAEEEDTLNLPKAPVSPQDKSSNQAMSLAILRVIRLVRVFRIFKLSRHSKGLQILGRTLKASMRELGLLIFFLFIGVVLFSSAVYFAEAGSENSFFKSIPDAFWWAVVTMTTVGYGDMTPVGVWGKIVGSLCAIAGVLTIALPVPVIVSNFNYFYHRETDQEEMQSQNFNHVTSCPYLPGTLGQHMKKSSLSESSSDMMDLDDGVESTPGLTETHPGRSAVAPFLGAQQQQQQPVASSLSMSIDKQLQHPLQQLTQTQLYQQQQQQQQQQQNGFKQQQQQTQQQLQQQQSHTINASAAAATSGSGSSGLTMRHNNALAVSIETDV
notes: two additional residues (Gly and Thr) left on the N terminus after removal of the mVenus tag with TEV protease, confirmed by mass spectrometry; Shaker Kv channel, Drosophila melanogaster, full-length gene; the N-terminal Met stands at position 3 of this construct; Purified by the N-terminal tag, so at least one N terminus is intact in each tetramer; other N termini may be truncated by …
B3: acetylated free N-terminal peptide of EI Shaker (Ac-AAVAGLYGLGKKRQHRKKQ) (peptide)
peptide: Ac-AAVAGLYGLGKKRQHRKKQ
notes: N terminus of the Shaker Kv channel without the initiator Met, with the E12K and D13K changes of EI Shaker; molecular weight 2,151 Da; also called additional N-terminal peptide; source: synthetic peptide (GenScript)
B4: full-length E12K/D13K AcA-EI Shaker Kv channel (enhanced inactivation mutant, initiator Met removed, Ala2 acetylated) (natural protein, Drosophila melanogaster, UniProt P08510 2-655, looked up)
chain: AAVAGLYGLGKKRQHRKKQQQQQQHQKEQLEQKEEQKKIAERKLQLREQQLQRNSLDGYGSLPKLSSQDEEGGAGHGFGGGPQHFEPIPHDHDFCERVVINVSGLRFETQLRTLNQFPDTLLGDPARRLRYFDPLRNEYFFDRSRPSFDAILYYYQSGGRLRRPVNVPLDVFSEEIKFYELGDQAINKFREDEGFIKEEERPLPDNEKQRKVWLLFEYPESSQAARVVAIISVFVILLSIVIFCLETLPEFKHYKVFNTTTNGTKIEEDEVPDITDPFFLIETLCIIWFTFELTVRFLACPNKLNFCRDVMNVIDIIAIIPYFITLATVVAEEEDTLNLPKAPVSPQDKSSNQAMSLAILRVIRLVRVFRIFKLSRHSKGLQILGRTLKASMRELGLLIFFLFIGVVLFSSAVYFAEAGSENSFFKSIPDAFWWAVVTMTTVGYGDMTPVGVWGKIVGSLCAIAGVLTIALPVPVIVSNFNYFYHRETDQEEMQSQNFNHVTSCPYLPGTLGQHMKKSSLSESSSDMMDLDDGVESTPGLTETHPGRSAVAPFLGAQQQQQQPVASSLSMSIDKQLQHPLQQLTQTQLYQQQQQQQQQQQNGFKQQQQQTQQQLQQQQSHTINASAAAATSGSGSSGLTMRHNNALAVSIETDV
modifications: acetyl on the N-terminal Ala2 (initiator Met removed), by mass spectrometry
notes: Shaker Kv channel, Drosophila melanogaster; Residues of the TEV site may remain at the C terminus (surmise); not shown: mVenus, C-terminal, cleaved; polyhistidine, C-terminal, cleaved

Assays:
[1] = target: the molecule itself; experiment: cryo-EM structure; channel in MSP1E3D1 lipid nanodiscs (POPC:POPG:POPE 3:1:1), 20 mM Tris pH 7.5, 4 mM KCl, 46 mM NaCl; C4 refinement and focused classification in C1
[2] = target: B4; experiment: cryo-EM structure; AcA-EI Shaker in MSP1E3D1 lipid nanodiscs, 4 mM KCl, 46 mM NaCl, incubated with 1 mM free acetylated N-terminal peptide for 30 min before grid preparation; C1; conditions: both partners purified

Row | binding result [2] | Binder | binding result [1]
1 | – | B1 | binds
2 | – | B2 | binds
3 | binds | B3 | –
4 | – | B4 | binds
